Assay results reported in patent US20040059519A1.
“And” between values parts separate entries of the source, which are not always exact repeats. Equal entries are not always repeated.

Experiments:
[1] = molecular target: Human chorionic gonadotropin (human) (UniProt P01215); test: anti-AFP capture beads, flow cytometry; hCG 100.0 ng/mL, anti-AFP probe
[2] = molecular target: Human chorionic gonadotropin (human) (UniProt P01215); test: anti-AFP capture beads, flow cytometry; hCG 1000.0 ng/mL, anti-AFP probe
Alpha fetoprotein [3] = molecular target: Alpha fetoprotein (UniProt P02771); test: anti-AFP capture beads, flow cytometry; AFP 100.0 ng/mL, anti-AFP probe
UniProt P02771, sequence (P02771 19-609 limits assumed): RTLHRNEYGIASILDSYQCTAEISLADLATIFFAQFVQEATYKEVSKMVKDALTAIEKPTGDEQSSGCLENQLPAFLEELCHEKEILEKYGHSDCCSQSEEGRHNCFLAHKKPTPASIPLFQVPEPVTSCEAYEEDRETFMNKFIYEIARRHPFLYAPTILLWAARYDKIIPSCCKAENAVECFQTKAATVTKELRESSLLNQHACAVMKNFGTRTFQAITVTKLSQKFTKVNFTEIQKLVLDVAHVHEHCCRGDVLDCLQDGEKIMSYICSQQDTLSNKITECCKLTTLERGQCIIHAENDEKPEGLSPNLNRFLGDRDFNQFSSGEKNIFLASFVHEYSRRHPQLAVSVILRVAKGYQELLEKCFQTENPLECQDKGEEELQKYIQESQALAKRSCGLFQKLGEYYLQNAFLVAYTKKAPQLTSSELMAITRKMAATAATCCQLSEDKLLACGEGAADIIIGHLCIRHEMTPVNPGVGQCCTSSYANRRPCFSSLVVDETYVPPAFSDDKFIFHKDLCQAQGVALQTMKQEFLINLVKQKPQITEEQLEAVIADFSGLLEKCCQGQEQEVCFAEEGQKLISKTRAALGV

[4] = molecular target: Human chorionic gonadotropin (human) (UniProt P01215); test: MAB602 capture beads, flow cytometry; hCG 0.1 ng/mL, anti-AFP probe
Alpha fetoprotein [5] = molecular target: Alpha fetoprotein (UniProt P02771); test: multiplex sandwich, S10473 capture beads; AFP 0.25 ng/mL, washed
Alpha fetoprotein [6] = molecular target: Alpha fetoprotein (UniProt P02771); test: multiplex sandwich, S10473 capture beads; AFP 31 ng/mL, no wash
Alpha fetoprotein [7] = molecular target: Alpha fetoprotein (UniProt P02771); test: multiplex no-wash sandwich, S10473 beads; serum Level 1, AFP 10.7 U/mL
Alpha fetoprotein [8] = molecular target: Alpha fetoprotein (UniProt P02771); test: multiplex sandwich, S10473 capture beads; AFP 125 ng/mL, washed
[9] = molecular target: Human chorionic gonadotropin (human) (UniProt P01215); test: MAB602 capture beads, flow cytometry; hCG 100.0 ng/mL, anti-AFP probe
Alpha fetoprotein [10] = molecular target: Alpha fetoprotein (UniProt P02771); test: multiplex sandwich, S10473 capture beads; AFP 0 ng/mL, washed
Alpha fetoprotein [11] = molecular target: Alpha fetoprotein (UniProt P02771); test: multiplex sandwich, S10473 capture beads; AFP 0.5 ng/mL, washed
Alpha fetoprotein [12] = molecular target: Alpha fetoprotein (UniProt P02771); test: anti-AFP capture beads, flow cytometry; AFP 1000.0 ng/mL, anti-AFP probe
[13] = molecular target: Neutravidin (deglycosylated avidin) (UniProt P02701); test: single-analyte, Neutravidin bead 70/50 without peptide, flow cytometry
UniProt P02701, sequence (P02701 25-152 limits assumed): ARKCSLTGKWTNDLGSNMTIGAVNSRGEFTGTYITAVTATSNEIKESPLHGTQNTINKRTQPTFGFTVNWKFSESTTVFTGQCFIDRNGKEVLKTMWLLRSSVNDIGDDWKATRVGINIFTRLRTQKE

Peptide 3 …-biotin = test: multiplex peptide beads, flow cytometry; no free biotin
Peptide 8 …-biotin = test: as above
Peptide 9 …-biotin = test: as above
Peptide 4 …-biotin = test: as above
Peptide 7 …-biotin = test: as above
Peptide 2 …-biotin = test: as above
Peptide 6 …-biotin = test: as above
Peptide 1 …-biotin = test: as above
[14] = molecular target: Peptide 5 …-biotin (human); test: as above
[15] = molecular target: Neutravidin (deglycosylated avidin) (UniProt P02701); test: multiplex, Neutravidin bead 40/60 without peptide, flow cytometry
[16] = molecular target: Neutravidin (deglycosylated avidin) (UniProt P02701); test: multiplex, Neutravidin bead 40/70 without peptide, flow cytometry
[17] = molecular target: Neutravidin (deglycosylated avidin) (UniProt P02701); test: single-analyte, Neutravidin bead 60/70 without peptide, flow cytometry
[18] = molecular target: Human chorionic gonadotropin (human) (UniProt P01215); test: bead sandwich, flow cytometry; capture A1 beads, hCG 20.0 ug/mL
[19] = molecular target: Human chorionic gonadotropin (human) (UniProt P01215); test: multiplex sandwich, MAB602 capture beads; hCG 500 ng/mL, no wash
[20] = molecular target: Human chorionic gonadotropin (human) (UniProt P01215); test: sandwich, MAB602 capture beads, flow cytometry; hCG 0.002 ng/mL
[21] = molecular target: Human chorionic gonadotropin (human) (UniProt P01215); test: multiplex no-wash sandwich, MAB602 beads; Unknown serum, hCG computed 218.55 mU/mL
[22] = molecular target: Human chorionic gonadotropin (human) (UniProt P01215); test: multiplex sandwich, MAB602 capture beads; hCG 0 ng/mL, no wash
[23] = molecular target: Human chorionic gonadotropin (human) (UniProt P01215); test: multiplex no-wash sandwich, MAB602 beads; Negative serum, hCG 10 mU/mL as printed
[24] = molecular target: Human chorionic gonadotropin (human) (UniProt P01215); test: MAB602 capture beads, flow cytometry; hCG 10.0 ng/mL, anti-hCG probe
[25] = molecular target: Human chorionic gonadotropin (human) (UniProt P01215); test: multiplex no-wash sandwich, MAB602 beads; serum Level 2, hCG 26.4 mU/mL
Alpha fetoprotein [26] = molecular target: Alpha fetoprotein (UniProt P02771); test: MAB602 capture beads, flow cytometry; AFP 10.0 ng/mL, anti-hCG probe
[27] = molecular target: Human chorionic gonadotropin (human) (UniProt P01215); test: multiplex sandwich, MAB602 capture beads; hCG 1 ng/mL, no wash
Alpha fetoprotein [28] = molecular target: Alpha fetoprotein (UniProt P02771); test: MAB602 capture beads, flow cytometry; AFP 1.0 ng/mL, anti-hCG probe
[29] = molecular target: Human chorionic gonadotropin (human) (UniProt P01215); test: MAB602 capture beads, flow cytometry; hCG 1.0 ng/mL, anti-hCG probe
[30] = molecular target: Human chorionic gonadotropin (human) (UniProt P01215); test: multiplex no-wash sandwich, MAB602 beads; serum Level 3D, hCG 218 mU/mL
[31] = molecular target: Human chorionic gonadotropin (human) (UniProt P01215); test: multiplex sandwich, MAB602 capture beads; hCG 4 ng/mL, washed
Alpha fetoprotein [32] = molecular target: Alpha fetoprotein (UniProt P02771); test: MAB602 capture beads, flow cytometry; AFP 0.0 ng/mL, anti-hCG probe
[33] = molecular target: Human chorionic gonadotropin (human) (UniProt P01215); test: sandwich, MAB602 capture beads, flow cytometry; hCG 0.02 ng/mL
[34] = molecular target: Human chorionic gonadotropin (human) (UniProt P01215); test: multiplex sandwich, MAB602 capture beads; hCG 31 ng/mL, no wash

UniProt P01215, sequence (P01215 25-116, chain 1 of 2, other chains not shown): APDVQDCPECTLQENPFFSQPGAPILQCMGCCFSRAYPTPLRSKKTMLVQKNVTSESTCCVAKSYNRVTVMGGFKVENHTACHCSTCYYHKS

M20077 affinity purified polyclonal anti-AFP antibody, Bodipy FL-CASE labeled
MIF of Fm [1]: 44 | MIF of Fm [2]: 78 | MIF of Fm (Alpha fetoprotein [3]): 356 | MIF of Fm [4]: 49 | MIF of Fm (Alpha fetoprotein [5]): 24 | MIF of Fm (Alpha fetoprotein [6]): 639 | MIF AVG (Alpha fetoprotein [7]): 78 | MIF of FL1 (Alpha fetoprotein [7]): 74 and 83 and 77 | MIF of Fm (Alpha fetoprotein [8]): 1050 | MIF of Fm [9]: 48 | MIF of Fm (Alpha fetoprotein [10]): 13 | MIF of Fm (Alpha fetoprotein [11]): 25 | MIF of Fm (Alpha fetoprotein [12]): 348

MAB 384, Bodipy FL-X labeled (antibody)
MIF of Fm [13]: 66 | MIF (Peptide 3 …-biotin): 20 | MIF (Peptide 8 …-biotin): 31 | MIF (Peptide 9 …-biotin): 31 | MIF (Peptide 4 …-biotin): 20 | MIF (Peptide 7 …-biotin): 19 | MIF (Peptide 2 …-biotin): 17 | MIF (Peptide 6 …-biotin): 32 | MIF (Peptide 1 …-biotin): 13 | MIF [14]: 915 | MIF of Fm [15]: 26 | MIF of Fm [16]: 34 | MIF of Fm [17]: 48

AB633 affinity purified polyclonal anti-hCG antibody, Bodipy FL-CASE labeled
MIF of Fm [18]: 8790 | MIF of Fm [19]: 1200 | MIF of Fm [20]: 122 and 121 | MIF AVG [21]: 272 | MIF of FL1 [21]: 270 and 264 and 283 | MIF of Fm [22]: 15 | MIF AVG [23]: 7.33 | MIF of FL1 [23]: 8 and 7 | MIF of Fm [24]: 530 | MIF AVG [25]: 31.7 | MIF of FL1 [25]: 32 and 34 and 29 | MIF of Fm (Alpha fetoprotein [26]): 47 | MIF of Fm [27]: 330 | MIF of Fm (Alpha fetoprotein [28]): 47 | MIF of Fm [29]: 104 | MIF AVG [30]: 272 | MIF of FL1 [30]: 268 and 276 and 271 | MIF of Fm [31]: 1300 | MIF of Fm (Alpha fetoprotein [32]): 71 | MIF of Fm [33]: 120 and 147 | MIF of Fm [34]: 2510
